Reference: the supplement of paper PMC12042874
± gives the uncertainty stated by the source.

Experiment: amyloid nucleation score (Sup35N fusion, yeast selection) (log enrichment); library NNK2; higher = more nucleation; inactive = no reads after selection
Procedure, shortened: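 Libraries of peptides of 20 random codons fused to Sup35N were expressed in psi-negative yeast and induced 24 hours with 100 μM copper sulfate. Selection was 7 days at 30°C on medium lacking adenine and uracil, and plasmid inserts were Illumina-sequenced before and after selection. Nucleation score is the DiMSum log enrichment of output over input reads, centred on the mode score of non-aggregating sequences, and sequences with under 100 input reads were left out.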

| Substance | amyloid nucleation score |
| --- | --- |
| RRYDAVR | 1.3 ± 0.22 |
| SNRWPGTFLASETNVLLE | -0.224 ± 0.32 |
| RHGGQAAGRVEHVTSGCQRV | 1.54 ± 0.47 |
| KTIFGGWSARSGNISMPSWM | 0.267 ± 0.54 |
| EHSWIKLCIEWMSKPIGARR | 0.927 ± 0.32 |
| EMCCTENCLEGSKVLAQFYC | -1.02 ± 0.61 |
| LIGVMGRCPGVLHLRSFVRD | 0.163 ± 0.37 |
| RFGLISANLLSLDY | -0.938 ± 1.1 |
| YIGEFGFILIPLRSFSPIPC | inactive |
| MASITDDRADLHH | inactive |
| RPKYIWDCWCTCFHFS | 3.63 ± 0.088 |
| CMFVILMYLHQGRKLNAVPS | -1.02 ± 1.1 |
| NAVEIERNLLQIFQLLNSGE | -0.739 ± 0.64 |
| SGINNIWYEDLTLPKWSKG | -0.401 ± 0.55 |
| LNSFVPVDSRVVTSAEWYAG | 0.889 ± 0.23 |
| GLNQSSLCNGEMGYCRIIWR | -1.03 ± 1.1 |
| NDHVVVAHTFYLCDRNVDEM | 0.483 ± 0.4 |
| YGVFRSESRPTCLKSLDRMK | 0.575 ± 0.34 |
| SRPWNYCRDLWTSVHTGLLS | 0.547 ± 0.36 |
| FPCSVRVTLTYLFMYEPVRP | 0.076 ± 0.2 |
| RAVRDLLVLNIINVAVTSIN | 7.495 ± 0.043 |
| RSKVYTWR | 3.23 ± 0.071 |

| Substance | amyloid nucleation score |
| --- | --- |
| ISSDRIYICL | 5.996 ± 0.059 |
| YMLRIRTMSVPVFPVGFLGL | -0.275 ± 0.56 |
| NGDSGG | 1.02 ± 0.16 |
| MYRIDD | 6.83 ± 0.088 |
| VRNGWCTSWNSTAN | 0.974 ± 0.52 |
| VFTSYFLLFICLGYCEFYGD | 4.299 ± 0.042 |
| CVLHEPLYS | -0.432 ± 0.3 |
| YWCLA | -0.737 ± 0.45 |
| CGTLINADRPAWH | -0.593 ± 0.35 |
| LLLINLLFSASKLALSM | -0.679 ± 1.1 |
| LILRGDS | -0.913 ± 0.4 |
| YIQLGWGLSKTWSHLTGELA | 2.34 ± 0.14 |
| LSVPRIFGSFVWVRQ | -0.633 ± 1.1 |
| GYDFT | inactive |
| FDGTIYCPSWILWETPGVNK | inactive |
| WAATITDRYRCL | 0.35 ± 0.35 |
| NCWYTFTL | 1.45 ± 0.12 |
| NMDKRSNGFRKCMWLS | -0.883 ± 1.1 |
| KYSAYWG | 0.518 ± 0.4 |
| IVSLCFNNWGSYRVNGQYLY | 6.564 ± 0.033 |
| WYRTGMGNLLSRGDVDTVRT | 0.131 ± 0.55 |
| RLALWVKSSYVFIQESEELH | 3.2 ± 0.1 |

| Substance | amyloid nucleation score |
| --- | --- |
| VKPHFRLGGNQNRPIPCSVS | 0.318 ± 0.45 |
| TMVALKI | -0.15 ± 0.44 |
| SYYQCCSG | 3.15 ± 0.14 |
| MLAWWPFRKWRVLIRGSRGF | 1.5 ± 0.35 |
| LNLILIDFKTSRCVERPFRE | 7.052 ± 0.051 |
| DGVCYSRVNYIPISMHVVYR | 4.87 ± 0.08 |
| LAGWRRK | 0.355 ± 0.36 |
| PDSRPIVRRSANCIWSNSWF | 1.38 ± 0.1 |
| LVRPFWTLRYKTYHRSPVGR | 1.59 ± 0.15 |
| QKEENSWPGLIRCNLGVREG | 0.092 ± 0.22 |
| HYSFRSIAGLQAVCGDNCMD | 0.427 ± 0.52 |
| AGANLLSLCSFKHAECYFSN | 6.31 ± 0.071 |
| GDDWSADVVI | -0.718 ± 0.55 |
| ILYVCDTRELSGWGGRCYAW | 1.73 ± 0.56 |
| YGLWIKS | -0.127 ± 1.1 |
| RVTKSVKLGPEFMLNHGRLT | 3.33 ± 0.061 |
| RLVNASEGGMHWANSSEFYA | 0.643 ± 0.24 |
| IRNNPCFQSGDVGY | -0.088 ± 1.1 |
| ARLAPRSLPCKWSPVAEKQR | -0.098 ± 0.79 |
| FRTYSAVVEWARNKYNLFCG | -0.271 ± 0.28 |
| GLTPSISSLRCIGSRFGKFS | 0.86 ± 0.46 |
| GGNCVVNSIFVDLAICYVRR | 9.818 ± 0.057 |

| Substance | amyloid nucleation score |
| --- | --- |
| DNLLSPTSRKFRVDTILL | -0.256 ± 0.4 |
| FRLHLKEFDGVPRWCQYTF | inactive |
| SVLERPCMS | 0.176 ± 0.76 |
| NLHEMLIGHGRQVRR | 1.42 ± 0.36 |
| LYVQLQMEVVGPGVRLTGSL | 3.19 ± 0.077 |
| SENGRLLLGLFGKRWDVNDV | -0.097 ± 0.79 |
| LLLINFSYNALTKVRSEEYL | 3.86 ± 0.084 |
| QLVLQVNRYVYRIMSTLTLS | 0.848 ± 0.52 |
| CRRCTIGLISDRGVLAAEES | -0.403 ± 0.63 |
| PMFCFCPLCLWHKDCISINS | 8.227 ± 0.078 |
| YSRKYSSAKVSMGDVCHNYM | -1.19 ± 0.76 |
| KWVRLNKFNLPPHYSPPQTM | 1.42 ± 0.24 |
| LSRSRVINIYASAGWRFLGS | inactive |
| RVSVDTWQAYMAICWSYVGL | 0.915 ± 0.23 |
| CPLPIVSFKTLINLNMMYKS | -0.269 ± 0.43 |
| RFWLESIWLDNL | 0.25 ± 0.42 |
| IMIMTGWS | -0.984 ± 0.44 |
| GATLGVADRPGKSAGLPWTD | 0.998 ± 0.15 |
| VMLNWKMVYRTRDFNLQSYD | 1.85 ± 0.15 |
| FEEYEGLLDVSFKRPSFYCI | 0.456 ± 0.6 |
| DVWWTYMYFKMSTVHAMSLF | -0.113 ± 1.1 |
